Laboratory results as given in US20220332804A1 (CSL INNOVATION, published 2022).
Residue numbers refer to the chain shown, from its start.

What was measured:
Test in all cases: SPR, antibody captured, C2 as analyte;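 also: biacore at 37 °C, anti-C2 mAbs held by immobilised goat anti-human IgG, C2 alanine or serine mutants injected, double-referenced sensorgrams fitted to a 1:1 kinetic or steady-state model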
human C2 V455A = molecular target: T1, human C2 V455A (human, UniProt P06681 21-752)
T1 sequence: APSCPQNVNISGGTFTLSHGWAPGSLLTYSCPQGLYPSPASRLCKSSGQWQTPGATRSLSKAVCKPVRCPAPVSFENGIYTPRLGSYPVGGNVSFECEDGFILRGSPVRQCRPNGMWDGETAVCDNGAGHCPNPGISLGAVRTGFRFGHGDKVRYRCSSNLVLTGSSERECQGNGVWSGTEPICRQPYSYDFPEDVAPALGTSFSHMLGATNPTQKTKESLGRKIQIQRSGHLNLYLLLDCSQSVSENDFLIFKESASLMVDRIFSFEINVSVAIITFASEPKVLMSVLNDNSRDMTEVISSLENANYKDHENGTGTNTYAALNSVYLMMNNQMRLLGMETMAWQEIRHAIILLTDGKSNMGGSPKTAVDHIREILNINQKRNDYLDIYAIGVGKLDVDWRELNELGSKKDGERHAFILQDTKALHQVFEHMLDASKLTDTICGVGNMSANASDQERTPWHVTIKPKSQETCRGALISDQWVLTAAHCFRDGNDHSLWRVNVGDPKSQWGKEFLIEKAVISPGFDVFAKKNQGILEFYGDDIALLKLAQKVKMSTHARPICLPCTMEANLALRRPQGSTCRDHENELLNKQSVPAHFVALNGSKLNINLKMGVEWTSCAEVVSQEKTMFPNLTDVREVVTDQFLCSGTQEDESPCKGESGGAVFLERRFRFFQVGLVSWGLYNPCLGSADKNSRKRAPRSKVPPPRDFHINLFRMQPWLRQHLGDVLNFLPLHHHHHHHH

human C2 K457A = molecular target: T2, human C2 K457A (human, UniProt P06681 21-752)
T2 sequence: T1 sequence with A435V, K437A

human C2 R519A = molecular target: T3, human C2 R519A (human, UniProt P06681 21-752)
T3 sequence: T1 sequence with A435V, R499A

human C2 M316A = molecular target: T4, human C2 M316A (human, UniProt P06681 21-752)
T4 sequence: T1 sequence with M296A, A435V

B1: RF16-242 (antibody, human IgG4 S228P, lambda, V domains shown)
VH: EVQLLQSGAEVKKPGESLKISCKGSGYSFTSYWIGWVRQMPGKGLEWMGIIYPGDSDTRYSPSFQGQVTISADKSISTAYLQWSSLKASDTAMYYCARRGHYGDYFDYWGQGTLVTVSS
VL: SYELTQPPSVSVSPGQTARITCSGDALPKKYAYWYHQKSGQAPVLVIYEDRRRPSEIPERFSGSSSGTMATLTITGAQVEDEGVYFCYSRDRAGNQRVFGGGTQLTVLG
notes: pH-dependent anti-C2 antibody from a phage display library
Kd (human C2 V455A): 5.9 nM | Kd (human C2 K457A): 233 nM | Kd (human C2 R519A): 7.6 nM | Kd (human C2 M316A): 10.1 nM
